Square brackets hold non-standard residues; d marks the D form. Ends that are not written are not given here. Peptide text beside a SMILES is read from it. * marks the point of attachment. Tyr(3,5-(NO2)2) = N[C@@H](Cc1cc([N+](=O)[O-])c(O)c([N+](=O)[O-])c1)C(=O)O; His(Trt) = N[C@@H](Cc1cn(C(c2ccccc2)(c2ccccc2)c2ccccc2)cn1)C(=O)O; His(τ-CHPh2) = N[C@@H](Cc1cn(C(c2ccccc2)c2ccccc2)cn1)C(=O)O; Biotin = O=C1N[C@H]2[C@H](CS[C@H]2CCCCC(=O)*)N1; 4‑chlorobenzhydryl = Clc1ccc(C(c2ccccc2)*)cc1; Bip = N[C@@H](Cc1ccc(-c2ccccc2)cc1)C(=O)O; dPhe(4-Br) = N[C@H](Cc1ccc(Br)cc1)C(=O)O; dPhe(4-Me) = Cc1ccc(C[C@@H](N)C(=O)O)cc1; Trt = c1ccc(C(c2ccccc2)(c2ccccc2)*)cc1; dPhe(4-F) = N[C@H](Cc1ccc(F)cc1)C(=O)O; Dmt = Cc1cc(O)cc(C)c1C[C@H](N)C(=O)O; Benzhydryl = c1ccc(C(c2ccccc2)*)cc1; Palmitoyl = CCCCCCCCCCCCCCCC(=O)*; Myristoyl = CCCCCCCCCCCCCC(=O)*; Lauroyl = CCCCCCCCCCCC(=O)*; Decanoyl = CCCCCCCCCC(=O)*; Octanoyl = CCCCCCCC(=O)*; SO3H = O=S(=O)(O)*; Bn = c1ccc(C*)cc1
T1: GPR39 (G protein coupled receptor 39) (UniProt O43194 1-453, limits assumed)
T1 sequence (looked up): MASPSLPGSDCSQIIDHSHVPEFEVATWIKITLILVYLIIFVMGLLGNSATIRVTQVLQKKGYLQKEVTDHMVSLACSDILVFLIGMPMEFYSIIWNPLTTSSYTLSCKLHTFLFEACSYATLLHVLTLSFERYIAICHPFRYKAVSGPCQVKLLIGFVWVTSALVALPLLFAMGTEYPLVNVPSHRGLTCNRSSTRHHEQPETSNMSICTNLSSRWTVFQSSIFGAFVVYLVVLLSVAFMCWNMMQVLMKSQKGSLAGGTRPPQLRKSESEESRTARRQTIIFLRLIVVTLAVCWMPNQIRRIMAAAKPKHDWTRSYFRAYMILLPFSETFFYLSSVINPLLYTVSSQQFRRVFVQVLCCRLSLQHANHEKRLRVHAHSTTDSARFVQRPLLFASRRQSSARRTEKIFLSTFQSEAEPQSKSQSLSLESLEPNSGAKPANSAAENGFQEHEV

T2: GPR39 (Homo sapiens, UniProt O43194)
T2 sequence (O43194 1-453): T1 sequence (looked up)

B1: HKFY-38 (peptide)
peptide: H(Trt)K(Octanoyl)FYSDQQARF
modifications: not fully specified; printed as His(trt)-Lys(caprylic)-Phe-Tyr-Ser-Asp-Gln-Gln-Ala-Arg-Phe
B2: HKFY-39 (peptide)
peptide: H(Trt)K(Octanoyl)FYSQNGARF
modifications: also: C-terminal amide in IUPAC name, not in sequence formula, .39 lacks Gln-Asn
B3: HKFY-40 (peptide)
peptide: H(Trt)K(Octanoyl)FYSHQQARF
modifications: not fully specified; printed as His(trt)-Lys(caprylic)-Phe-Tyr-Ser-His-Gln-Gln-Ala-Arg-Phe
B4: HKFY-42 (peptide)
peptide: H(Trt)K(Octanoyl)FYHQQARF
modifications: not fully specified; printed as His(trt)-Lys(caprylic)-Phe-Tyr-His-Gln-Gln-Ala-Arg-Phe

The molecules below were run against T1, GPR39 (G protein coupled receptor 39) (assay: cell-based or functional assay). Settings: not given.
In the case of H(4‑chlorobenzhydryl)K(Octanoyl)FY [HKFY-21], the “EC50; SRE-luciferase reporter” value is reported as 136000 nM and the “ECmax; SRE-luciferase reporter” value is reported as 18.3 -fold induction over basal.
With H(4‑methylbenzhydryl)K(Octanoyl)FY [HKFY-22] the “EC50; SRE-luciferase reporter” value was 59800 nM and the “ECmax; SRE-luciferase reporter” value was 21.3 -fold induction over basal.
For HK(Octanoyl)FY (not fully specified; also: His1 substituent: adamantan-1-yl or adamantanmethyl) [HKFY-23], the “EC50; SRE-luciferase reporter” value was 2600 nM and the “ECmax; SRE-luciferase reporter” value was 15 -fold induction over basal.
In the case of H(Trt)K(Decanoyl)FY-OH [HKFY-24], the “EC50; SRE-luciferase reporter” value is reported as 240 nM and the “ECmax; SRE-luciferase reporter” value is reported as 7.03 -fold induction over basal.
H(Trt)K(Lauroyl)FY-OH [HKFY-25] was tested, and the “EC50; SRE-luciferase reporter” value was 630 nM and the “ECmax; SRE-luciferase reporter” value was 7.72 -fold induction over basal.
With H(Bn)K(Octanoyl)FY [HKFY-3] the “EC50; SRE-luciferase reporter” value was 4130 nM and the “ECmax; SRE-luciferase reporter” value was 9.2 -fold induction over basal.
H(Trt)K(Myristoyl)FY-OH [HKFY-26] was tested, and the “EC50; SRE-luciferase reporter” value was 280 nM and the “ECmax; SRE-luciferase reporter” value was 19.8 -fold induction over basal.
H(Trt)K(Palmitoyl)FY-OH [HKFY-27] was tested, and the “EC50; SRE-luciferase reporter” value was 560 nM and the “ECmax; SRE-luciferase reporter” value was 20.4 -fold induction over basal.
For H(Trt)K(Octanoyl)[dPhe(4-F)]Y-OH [HKFY-28], the “EC50; SRE-luciferase reporter” value was 74 nM and the “ECmax; SRE-luciferase reporter” value was 22.9 -fold induction over basal.
For H(Trt)K(Octanoyl)[dPhe(4-Br)]Y-OH [HKFY-29], the “EC50; SRE-luciferase reporter” value was 310 nM and the “ECmax; SRE-luciferase reporter” value was 26.8 -fold induction over basal.
In the case of H(Trt)K(Octanoyl)[dPhe(4-Me)]Y [HKFY-30], the “EC50; SRE-luciferase reporter” value is reported as 8 nM and the “ECmax; SRE-luciferase reporter” value is reported as 23.9 -fold induction over basal.
[dH](Trt)K(Octanoyl)[dPhe(4-Me)]Y [HKFY-31] was tested, and the “EC50; SRE-luciferase reporter” value was 20 nM and the “ECmax; SRE-luciferase reporter” value was 20.9 -fold induction over basal.
HK(Octanoyl)[dPhe(4-Me)]Y (not fully specified (residue 1)) [HKFY-32] was tested, and the “EC50; SRE-luciferase reporter” value was 2 nM and the “ECmax; SRE-luciferase reporter” value was 21.5 -fold induction over basal.
For H(Benzhydryl)K(Octanoyl)FY [HKFY-33], the “EC50; SRE-luciferase reporter” value was 150 nM and the “ECmax; SRE-luciferase reporter” value was 20 -fold induction over basal.
H(Benzhydryl)K(Octanoyl)[dPhe(4-Me)]Y(SO3H) [HKFY-35] was tested, and the “EC50; SRE-luciferase reporter” value was 280 nM and the “ECmax; SRE-luciferase reporter” value was 18.9 -fold induction over basal.
In the case of [dH](Trt)K(Octanoyl)FY [HKFY-4], the “EC50; SRE-luciferase reporter” value is reported as 130 nM and the “ECmax; SRE-luciferase reporter” value is reported as 16.8 -fold induction over basal.
For H(Benzhydryl)K(Octanoyl)[dPhe(4-Me)][Dmt] [HKFY-36], the “EC50; SRE-luciferase reporter” value was 150 nM and the “ECmax; SRE-luciferase reporter” value was 9.9 -fold induction over basal.
In the case of GSH(Trt)K(Octanoyl)FY [HKFY-37], the “EC50; SRE-luciferase reporter” value is reported as 1840 nM and the “ECmax; SRE-luciferase reporter” value is reported as 16 -fold induction over basal.
For B1, the “EC50; SRE-luciferase reporter” value was 3500 nM and the “ECmax; SRE-luciferase reporter” value was 16.5 -fold induction over basal.
In the case of B2, the “ECmax; SRE-luciferase reporter” value is reported as 12.1 -fold induction over basal.
For B3, the “EC50; SRE-luciferase reporter” value was 1300 nM and the “ECmax; SRE-luciferase reporter” value was 13.4 -fold induction over basal.
For H(Trt)K(Octanoyl)FYQNGARF (not fully specified (C-terminus)) [HKFY-41], the “EC50; SRE-luciferase reporter” value was 9550 nM and the “ECmax; SRE-luciferase reporter” value was 12.2 -fold induction over basal.
For B4, the “EC50; SRE-luciferase reporter” value was 1580 nM and the “ECmax; SRE-luciferase reporter” value was 11.8 -fold induction over basal.
For H(Trt)K(Octanoyl)FYQNQARF (also: C-terminal Phe amide in IUPAC name, not in sequence formula) [HKFY-43], the “EC50; SRE-luciferase reporter” value was 1210 nM and the “ECmax; SRE-luciferase reporter” value was 12.1 -fold induction over basal.
For H(Trt)K(Octanoyl)FYW [HKFY-44], the “EC50; SRE-luciferase reporter” value was 370 nM and the “ECmax; SRE-luciferase reporter” value was 20 -fold induction over basal.
For Biotin-H(Trt)K(Octanoyl)[Bip]Y [HKFY-45], the “EC50; SRE-luciferase reporter” value was 140 nM and the “ECmax; SRE-luciferase reporter” value was 21 -fold induction over basal.
In the case of H(Trt)K(Octanoyl)FW [HKFY-46], the “EC50; SRE-luciferase reporter” value is reported as 260 nM and the “ECmax; SRE-luciferase reporter” value is reported as 20 -fold induction over basal.
In the case of H(Trt)K(Octanoyl)YF-OH [HKFY-47], the “EC50; SRE-luciferase reporter” value is reported as 300 nM and the “ECmax; SRE-luciferase reporter” value is reported as 13 -fold induction over basal.
With H(Trt)K(Octanoyl)YY-OH [HKFY-48] the “EC50; SRE-luciferase reporter” value was 330 nM and the “ECmax; SRE-luciferase reporter” value was 14.4 -fold induction over basal.
For His(Trt)-Lys(Octanoyl)-Phe-OH [HKFY-49], the “EC50; SRE-luciferase reporter” value was 320 nM and the “ECmax; SRE-luciferase reporter” value was 18.3 -fold induction over basal.

The molecules below were run against T2, GPR39 (assay: luciferase assay system (SRE luciferase reporter gene, CV-1 cells expressing GPR39)). Settings: not given.
Format: cell-based
Parameters: expressed in transfected cells; host or cells: CV-1 fibroblast cell line (Korea Cell Line Bank), adenoviral transduction at 50 MOI
With `CCCCCCCCCCCCCC(=O)NCCCC[C@H](NC(=O)[C@@H](N)Cc1cn(C(c2ccccc2)(c2ccccc2)c2ccccc2)cn1)C(=O)N[C@@H](Cc1ccccc1)C(=O)N[C@@H](Cc1ccc(O)cc1)C(=O)O` [HKFY-26, N6-tetradecanoyl-N2-(Nt-trityl-L-histidyl)-L-lysyl-L-phenylalanyl-L-tyrosine] (H-[His(Trt)]K(Myristoyl)FY-OH) the “ECmax (−fold induction over basal)” value was 19.82 ± 0.57 fold induction over basal.
With `CCCCCCCC(=O)NCCCC[C@H](NC(=O)[C@@H](N)Cc1cn(S(=O)(=O)c2ccc(C)cc2)cn1)C(=O)N[C@H](Cc1ccc(C)cc1)C(=O)N[C@@H](Cc1ccc(O)cc1)C(=O)O` [HKFY-75, ((R)-2-((S)-2-((S)-2-amino-3-(1-tosyl-1H-imidazol-4-yl)propanamido)-6-octanamidohexanamido)-3-(p-tolyl)propanoyl)-L-tyrosine] the “ECmax (−fold induction over basal)” value was 15.9 ± 4.12 fold induction over basal.
For `CCCCCCCC(=O)NCCCC[C@H](NC(=O)[C@H](Cc1cn(C(c2ccccc2)(c2ccccc2)c2ccccc2)cn1)NC(=O)CCCC[C@@H]1SC[C@@H]2NC(=O)N[C@@H]21)C(=O)N[C@@H](Cc1ccc(-c2ccccc2)cc1)C(=O)N[C@@H](Cc1ccc(O)cc1)C(=O)O` [HKFY-45, ((S)-3-([1,1′-biphenyl]-4-yl)-2-((S)-6-octanamido-2-((S)-2-(5-((3aS,4S,6aR)-2-oxohexahydro-1H-thieno[3,4-d]imidazol-4-yl)pentanamido)-3-(1-trityl-1H-imidazol-4-yl)propanamido)hexanamido)propanoyl)-L-tyrosine] (Biotin-[His(Trt)]K(Octanoyl)[Bip]Y-OH), the “ECmax (−fold induction over basal)” value was 21 ± 2.58 fold induction over basal.

Same assay, conditions: CV-1 cells, GPR39 and SRE luciferase adenovirus, 6 hours treatment
In the case of `CCCCCCCC(=O)NCCCC[C@H](NC(=O)[C@@H](N)Cc1cn(C(c2ccccc2)c2ccccc2)cn1)C(=O)N[C@H](Cc1ccc(C)cc1)C(=O)N[C@@H](Cc1cc([N+](=O)[O-])c(O)c([N+](=O)[O-])c1)C(=O)O` [HKFY-69, (S)-2-((R)-2-((S)-2-((S)-2-amino-3-(1-benzhydryl-1H-imidazol-4-yl)propanamido)-6-octanamidohexanamido)-3-(p-tolyl)propanamido)-3-(4-hydroxy-3,5-dinitrophenyl)propanoic acid] (H-[His(τ-CHPh2)]K(Octanoyl)[dPhe(4-Me)][Tyr(3,5-(NO2)2)]-OH), the “ECmax (−fold induction over basal)” value is reported as 12.2 ± 2.5 fold induction over basal.

From patent US20250340591A1, “COMPOSITION FOR PREVENTING OR TREATING INFLAMMATORY BOWEL DISEASE CONTAINING NOVEL COMPOUND” (ANYGEN CO., LTD., priority 2021, published 2025)
